# Patent US20150352207A1, “USE OF ANTIBODIES AGAINST ICAM-1 IN COMBINATION WITH AN ANTI CANCER DRUG IN THE TREATMENT OF PATIENTS” (BIOINVENT INTERNATIONAL AB, priority 2013, published 2015)
# Like-named read-outs stand apart in the source and are kept apart here.
# Legend:
# [1] = test system: RPMI-8226 myeloma cells; test: Subcutaneous scid myeloma xenograft, RPMI-8226; format: in vivo, scid mice; conditions: 2 mg/kg twice weekly
# Description: Antibody treatment with 2 mg/kg B11 or control IgG1 was started at Day 1 and was continued on a twice-weekly intraperitoneal dosing regimen. Mice were sacrificed when tumor sizes reached the ethical limit.
# [2] = molecular target: T1, human FcγRIIIa (Homo sapiens, UniProt P08637); test: B11 isotype variant binding to FcγR (Biacore), human FcγRIIIa
# T1 construct: made in house; host or cells: HEK293E (transient, adherent)
# Description: His-tagged human FcγRIIIa or mouse FcγRIV were expressed transient in adherent HEK293E cells, purified using Ni-NTA chromatography and characterized using SDS-PAGE and/or Biacore. Surface plasmon resonance (SPR) measurements were performed using a Biacore 3000 instrument. Goat α-human-F(ab)′2 F(ab)′2 fragment (Jackson laboratories) was immobilised with a CM-5 chip using a standard amine coupling protocol. IgG1 B11, IgG4 B11, or 297Q B11 were diluted to 15 and 60 μg/mL respectively and added to the surface at […] for 3 min. His tagged human FcγRIIIa or mouse FcγRIV were pre-incubated with an α-HIS antibody (R&D Systems) at a 2:1 molar ratio before addition to the chip surface, 30 μL/min, 1 min. After each cycle the surface was regenerated twice with glycine buffer pH 1.7.
# [3] = test system: B lymphoma cell line (CL-01); test: Antibody-dependent cell-mediated cytotoxicity (ADCC) with natural killer effector cells; format: cell-based; conditions: human Natural Killer effector cells
# Description: Buffy coats from human donors (ordered through Blodcentralen, Lund) were used to isolate peripheral blood mononuclear cells (PBMCs), and subsequently NK cells. Briefly, peripheral blood components were separated using Ficoll Paque PLUS (Amersham Biosciences, Sweden) in LeucoSep tubes (Greiner Bio-One). The PBMC fraction was removed and thoroughly washed in ice-cold DPBS (Invitrogen), before magnetic labeling and separation of the NK cell population using positive or negative NK cell isolation kits and MACS LS columns (Miltenyi Biotec). The purity of the obtained NK cell fractions was analyzed using flow cytometry, after staining with α-CD56 antibodies (BD Biosciences). Target cells were harvested, and incubated in medium with or without the respective antibodies (2 μg/mL) for 60 min on ice. Cells were thereafter washed and resuspended in cold medium before dispension into FACS tubes. Subsequently, isolated NK cells were diluted in ADCC medium and dispensed together with the respective antibody-coated target cells at varying effector/target cell ratios (40:1, 20:1, 5:1 and 1:1). All experiments were performed in triplicates. After completed incubation ToPo-Pro-3 dye and counting beads (Invitrogen) were added and cells were analyzed for membrane permeabilization using flow cytometry.
# [4] = test system: ICAM-1 expressing tumor cell lines; test: Complement-dependent cytotoxicity (CDC) in tumor cell lines; format: cell-based; conditions: panel of ICAM-1 expressing tumor cell lines
# Description: (§1) Target cells were harvested and incubated in RPMI medium with antibodies at 5 μg/mL or at titrated concentrations between 0.01-100 μg/mL for 60 min on ice. Cells were thereafter washed and resuspended in cold medium before dispension into flow cytometry tubes. Treatments were performed in triplicates. Human serum, normal or heat-inactivated, (Sigma, Sweden) was added to tubes and the samples were incubated for 2 h at 37° C. After completed incubation ToPo-Pro-3 was added at a final concentration of 0.3 μM and cells were analyzed for membrane permeabilization using flow cytometry.
# [5] = test system: Daudi lymphoma cells; test: Programmed cell death (PCD) assay, Daudi cells; format: cell-based
# Description: (§2) Target cells were seeded in 96-well culture plates at a density of 2×10^6 cells/mL culture medium. Titrated concentrations of IgG1 B11 or different negative and positive control antibodies were added to the cells, in the absence or presence of anti-human Fab fragment (Jackson ImmunoResearch) for cross-linking. The cells were then incubated for 16 hours at 37° C. in a humidified atmosphere of 5% CO2. The cells were harvested and stained for Annexin V-488/Propidium Iodide (Invitrogen, Sweden) and analysed using flow cytometer (FACS Calibur, BD Bioscience).
# [6] = test system: HUVEC and HMVEC endothelial cells; test: PCD in normal ICAM-1 expressing endothelial cells; format: cell-based; conditions: resting or activated HUVEC/HMVEC
# Description: as §2
# [7] = test system: HUVEC, HMVEC or peripheral blood B cells; test: ADCC of normal ICAM-1 expressing cells; format: cell-based
# [8] = test system: HUVEC, HMVEC or peripheral blood B cells; test: CDC of normal ICAM-1 expressing cells; format: cell-based
# Description: as §1
# [9] = test system: PBMC; test: PBMC cytokine release; format: cell-based
# Description: (§3) We next assessed IgG B11 effects on PBMC cytokine release and cell proliferation. In order to maximize chances of identifying any PBMC agonistic properties of IgG B11, we used two different antibody coating-protocols where antibody is hyper-cross-linked as previously described (62).
# [10] = test system: PBMC; test: PBMC / T cell proliferation; format: cell-based; conditions: immobilised antibody or in solution
# Description: as §3
# [11] = Serum antibody levels of treated xenografted mice (ELISA); format: in vivo; conditions: serum at end of experimentation
# Description: We next performed a dose-titration experiment to establish IgG B11 in vivo potency and the minimal dose achieving maximal anti-tumor activity, using the scid/ARH-77 model system. […] Mouse serum antibody trough concentrations were determined by ELISA at the end of experimentation. Trough antibody concentrations were then plotted against percent of maximal in vivo anti-tumour activity, and against percent of maximal ICAM-1 receptor occupancy and tumour cell PCD at corresponding antibody concentrations in vitro (FIGS. 3C, 3D, 3E, 3F and 3G). Strikingly, a near perfect correlation between antibody concentration and in vitro tumour cell receptor occupancy, in vitro tumor cell PCD, and in vivo anti-tumour activity was observed, consistent with ICAM-1 dependent direct cell cytotoxicity underlying in vivo anti-tumour activity.
# [12] = molecular target: recombinant human ICAM-1 (Homo sapiens, UniProt P05362); test: ELISA binding to recombinant human ICAM-1, ICAM-2 or ICAM-3; conditions: versus ICAM-2, ICAM-3
# [13] = test system: ARH-77 tumors; test: Advanced (established, palpable tumors) scid/ARH-77 xenograft model; conditions: IgG B11 effective even at 100-fold lower dose (0.2 mg/kg) than rituximab
# Description: Mice were anaesthetized with a mixture of sevofluran and oxygen prior to myeloma cell inoculation and 1-5×10^6 myeloma cells were then subcutaneously injected in a volume of 100 μl into the left flank. Treatment with antibodies by intraperitonial (i.p.) injections was started either the day after cell inoculation (prophylactic model) or when tumors reached a size of approximately 100 mm^3 (established model). Antibodies were administrated in PBS in a total volume of 200 μL. Treatment with PBS or isotype control was used as control. Tumors were measured with a digital calliper and the tumor volumes were calculated according to formula: width^2×length×0.52. Animals were sacrificed when the tumor sizes reached the ethical limit of 1.5 cm. Surviving mice were sacrificed after a maximum of 5 months. Blood samples collected from the vena cava were centrifuged at 2500 g for 15 min to obtain serum and the samples were stored at −20° C. Tumors were removed for immunohistochemistry, snap frozen and were kept at −85° C.
# [14] = test system: ARH-77 cells; test: Subcutaneous scid/ARH-77 xenograft, treatment from the day after cell inoculation (prophylactic model)
# Description: Tumor cells were injected subcutaneously into the left flank of SCID mice. Mice received twice-weekly intraperitoneal injections with B11, control antibody or rituximab at doses of 20, 2 and/or 0.2 mg/kg commencing one day after tumor cell inoculation. There were 8 to 10 animals per treatment group. (A) Tumor volume as a function of antibody dose. (B) Kaplan-Meier survival graph as a function of antibody dose. […] Statistical significance was calculated relative to control antibody treatment using Kruskal-Wallis Test (Nonparametric ANOVA) with Dunn's Multiple Comparisons Test (tumor volume) or the log-rank test (mouse survival) using Graphpad Instat or Prism software, respectively. Statistical significance was considered for *p<0.05, **p<0.01, and ***p<0.001.
# Tumor cells were injected subcutaneously into the left flank of SCID mice. Mice received twice-weekly intraperitoneal injections with B11 at doses of 0.02-20 mg/kg commencing day after tumor cell inoculation. There were 8-10 animals per treatment group. (A) Tumor volume as a function of antibody dose. (B) Kaplan-Meier survival graph as a function of antibody dose. Statistical significance was calculated relative to control antibody treatment using Kruskal-Wallis Test (Nonparametric ANOVA) with Dunn's Multiple Comparisons Test (tumor volume) or the log-rank test (mouse survival) using Graphpad Instat or Prism software, respectively. Statistical significance was considered for *p<0.05, **p<0.01, and ***p<0.001. Graphs illustrate representative experiments out of several performed.
# (A) ARH-77 cells were injected subcutaneously into the left flank of SCID mice (n=8 per group). Mice were treated with the different B11 isotypes twice weekly. […] Statistical significance was calculated relative to control antibody treatment using Kruskal-Wallis Test (Nonparametric ANOVA) with Dunn's Multiple Comparisons Test. Statistical significance was considered for *p<0.05, **p<0.01, and ***p<0.001.
# Mice were anaesthetized with a mixture of sevofluran and oxygen prior to myeloma cell inoculation and 1-5×10^6 myeloma cells were then subcutaneously injected in a volume of 100 μl into the left flank. Treatment with antibodies by intraperitonial (i.p.) injections was started either the day after cell inoculation (prophylactic model) or when tumors reached a size of approximately 100 mm^3 (established model).
# T1 sequence (P08637 17-254): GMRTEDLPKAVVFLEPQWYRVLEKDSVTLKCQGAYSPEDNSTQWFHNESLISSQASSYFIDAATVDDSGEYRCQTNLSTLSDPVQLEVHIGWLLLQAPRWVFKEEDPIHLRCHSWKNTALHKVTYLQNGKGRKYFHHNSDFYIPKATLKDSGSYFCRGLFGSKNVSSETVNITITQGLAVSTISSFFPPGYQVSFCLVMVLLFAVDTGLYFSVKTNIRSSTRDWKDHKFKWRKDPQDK
# recombinant human ICAM-1, sequence (P05362 28-532): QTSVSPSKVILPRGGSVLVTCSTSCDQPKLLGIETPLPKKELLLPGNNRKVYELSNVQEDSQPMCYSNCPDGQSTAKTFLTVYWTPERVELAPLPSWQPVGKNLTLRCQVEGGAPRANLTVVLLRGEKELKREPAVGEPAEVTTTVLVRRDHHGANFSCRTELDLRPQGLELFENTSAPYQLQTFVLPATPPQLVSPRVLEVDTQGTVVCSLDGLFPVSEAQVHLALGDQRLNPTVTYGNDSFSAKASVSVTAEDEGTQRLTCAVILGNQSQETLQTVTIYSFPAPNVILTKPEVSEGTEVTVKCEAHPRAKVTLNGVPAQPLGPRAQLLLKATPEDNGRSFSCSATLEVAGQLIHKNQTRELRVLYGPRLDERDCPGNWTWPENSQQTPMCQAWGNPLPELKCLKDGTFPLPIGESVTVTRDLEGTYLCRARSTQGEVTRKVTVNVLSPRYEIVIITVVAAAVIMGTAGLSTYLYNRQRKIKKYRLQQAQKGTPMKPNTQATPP
molecule,measurement,setting,value
"IgG B11: novel human ICAM-1 antibody targeting the B11 epitope, isolated from the naïve antibody library n-CoDeR (antibody, V domains shown, B11 antibody variable H region; B11 antibody variable L region) VH: EVQLLESGGGLVQPGGSLRLSCAASGFTFSNAWMSWVRQAPGKGLEWVAFIWYDGSNKYYADSVKGRFTISRDNSKNTLYLQMNSLRAEDTAVYYCARYSGWYFDYWGQGTLVTVSS VL: QSVLTQPPSASGTPGQRVTISCTGSSSNIGAGYDVHWYQQLPGTAPKLLIYDNNNRPSGVPDRFSGSKSGTSASLAISGLRSEDEADYYCQSYDSSLSAWLFGGGTKLTVLG",reduction of myeloma tumor growth,[1],96%
same,binding to human FcγRIIIa,[2],bound to human FcγRIIIa
same,ADCC of target tumor cells,[3]; listed as B11,mediated FcγRIIIA-dependent ADCC
same,ADCC of target tumor cells,[3]; listed as IgG B11 IgG1,mediated ADCC of target tumor cells
same,induction of CDC,[4],did not induce CDC
same,PCD-induction,[5]; ICAM-1 expressing Daudi lymphoma cells,dose dependent PCD-induction
same,programmed cell death by immobilised antibody,"[5]; antibody immobilised by either coating protocol, data not shown",induced programmed cell death
same,programmed cell death of normal endothelial cells,[6],"did not, however, induce PCD"
same,ADCC of normal cells,[7],did not confer ADCC or CDC
same,ADCC of normal cells,[7]; listed as B11,not significantly affected
same,CDC of normal cells,[8],did not confer ADCC or CDC
same,CDC of normal cells,[8]; listed as B11,not significantly affected
same,PBMC cytokine release,"[9]; antibody in solution, resting or lipopolysaccharide pre-stimulated PBMCs",did not induce or enhance cytokine release
same,PBMC cytokine release,"[9]; immobilised antibody, or in solution with or without cross-linking reagent","did not, however, induce PBMC cytokine release"
same,PBMC cytokine release,"[9]; immobilised antibody, or in solution with or without cross-linking reagent, listed as B11",not significantly affected
same,cell proliferation,[10],did not induce cell proliferation
same,cell proliferation,[10]; listed as B11,not significantly affected
same,In vivo IgG Levels,[11]; Dose 0.02 mg/kg,0.06 ± 0.02 µg/mL
same,In vivo IgG Levels,[11]; Dose 0.2 mg/kg,1.2 ± 0.4 µg/mL
same,In vivo IgG Levels,[11]; Dose 2 mg/kg,20 ± 2.9 µg/mL
same,specificity for ICAM-1,[12],high specificity
same,animal survival,[13],prolonged animal survival
same,tumor growth,[13],significantly prevented tumor growth
same,tumor growth,"[14]; 20 mg/kg twice weekly i.p., commencing one day after tumor cell inoculation",completely prevent tumor-growth
same,anti-tumor activity in dose-titration experiment,[14]; B11 0.02-20 mg/kg twice weekly i.p.,peaked at the 2 mg/kg dose and remained near maximal at a dose of 0.2 mg/kg
same,survival,"[14]; IgG B11 at 2 mg/kg, ten-fold lower dose than rituximab",complete survival
same,anti-tumor activities of IgG B11 isotype switch variants (rank order),"[14]; twice weekly treatment, s.c. ARH-77",increased in the order of IgG1N297Q<IgG4<IgG1
